According to publication PMC5519978, “DNA binding drives the association of BRG1/hBRM bromodomains with nucleosomes”:

What was measured:
BRG1 AT-BRD [1] = biological target: T1, BRG1 AT-BRD (human, UniProt P51532 1434-1569); experiment: NMR titration; 25 C; FA and NMR: 50 mM K phosphate pH 7.0, 50 mM KCl, 0.5 mM EDTA, 1 mM DTT (NMR +10% D2O), 20 C (BRG1 NMR 25 C); EMSA: 150 nM DNA/NCP, 10 mM K phosphate, 10 mM KCl, on ice, 0.2x TBE gel; settings: protein: recombinant; tags: pDEST15 or pGEX6p1 (GST); blunt
T1 sequence (P51532 1434-1569): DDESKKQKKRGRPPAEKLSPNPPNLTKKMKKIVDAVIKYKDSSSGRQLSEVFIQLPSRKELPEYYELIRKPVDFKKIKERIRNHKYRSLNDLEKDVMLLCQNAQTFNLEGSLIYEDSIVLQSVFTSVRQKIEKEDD

hBRM-A AT-BRD = hBRM-A AT-BRD (human, UniProt P51531 1358-1508); experiment: NMR titration; 1:1 stoichiometric; FA and NMR: 50 mM K phosphate pH 7.0, 50 mM KCl, 0.5 mM EDTA, 1 mM DTT (NMR +10% D2O), 20 C (BRG1 NMR 25 C); EMSA: 150 nM DNA/NCP, 10 mM K phosphate, 10 mM KCl, on ice, 0.2x TBE gel; settings: protein: recombinant; tags: pDEST15 (GST) with PreScission site; blunt
Chain of hBRM-A AT-BRD (P51531 1358-1508): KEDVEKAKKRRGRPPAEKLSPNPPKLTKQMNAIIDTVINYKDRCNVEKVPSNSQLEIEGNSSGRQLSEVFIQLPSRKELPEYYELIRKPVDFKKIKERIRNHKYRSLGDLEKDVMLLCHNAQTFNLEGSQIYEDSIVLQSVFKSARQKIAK

BRG1 AT-BRD [2] = biological target: T1, BRG1 AT-BRD; experiment: fluorescence anisotropy; FA and NMR: 50 mM K phosphate pH 7.0, 50 mM KCl, 0.5 mM EDTA, 1 mM DTT (NMR +10% D2O), 20 C (BRG1 NMR 25 C); EMSA: 150 nM DNA/NCP, 10 mM K phosphate, 10 mM KCl, on ice, 0.2x TBE gel; settings: protein: recombinant; tags: pDEST15 or pGEX6p1 (GST); label: 5' 6-FAM on strand 1; blunt

| Binder | binding result (BRG1 AT-BRD [1]) | binding result (hBRM-A AT-BRD) | Kd (BRG1 AT-BRD [2]) [µM] |
| --- | --- | --- | --- |
| DNAII (dsDNA) DNA 1: CGTAGACAGCT DNA 2: AGCTGTCTACG | binds | – | – |
| DNAI (dsDNA) DNA 1: CTCAATTGGT DNA 2: ACCAATTGAG | binds | binds | – |
| DNAI.FA (dsDNA) DNA 1: CCTCAATTGGTC DNA 2: GACCAATTGAGG | – | – | 16 ± 2 |
| DNAIII (dsDNA) DNA 1: CCTCAATTGGTCGTAG DNA 2: CTACGACCAATTGAGG | – | binds | – |
| DNAII.FA (dsDNA) DNA 1: CGTAGACAGCTC DNA 2: GAGCTGTCTACG | – | – | 40 ± 10 |
